B1: SinR (natural protein, B. subtilis, UniProt P06533 1-111, looked up)
chain: MIGQRIKQYRKEKGYSLSELAEKAGVAKSYLSSIERNLQTNPSIQFLEKVSAVLDVSVHTLLDEKHETEYDGQLDSEWEKLVRDAMTSGVSKKQFREFLDYQKWRKSQKEE
notes: After cleavage with human rhinovirus 3C protease a residual N-terminal Gly-Pro-Ala is expected to remain; Tetramer by SEC-MALLS; also called intact SinR; full-length SinR; not shown: His6, N-terminal, cleaved
B2: SinR(74–111) (domain or fragment, B. subtilis, UniProt P06533 74-111, looked up)
chain: LDSEWEKLVRDAMTSGVSKKQFREFLDYQKWRKSQKEE
notes: SinR, Bacillus subtilis, C-terminal domain, residues 74–111; A selenomethionine form was also crystallised; also called C-terminal domain of SinR; not shown: His6, N-terminal, cleaved
B3: SinI (natural protein, B. subtilis, UniProt P23308 1-57, looked up)
chain: MKNAKQEHFELDQEWVELMVEAKEANISPEEIRKYLLLNKKSAHPGPAARSHTVNPF
notes: Cloned into the same modified pET28 vector and cleaved as described for SinR, so a residual N-terminal Gly-Pro-Ala probably remains (surmised); Dimer by SEC-MALLS
B4: tandem repeat SinRBM duplex (dsDNA)
DNA 1: GTCGTTCTCTCGTTCTCTATAA
DNA 2: TTATAGAGAACGAGAGAACGAC
B5: single-site SinRBM duplex (dsDNA)
DNA 1: AATTTTTCGTTCTTTATAAAAT
DNA 2: ATTTTATAAAGAACGAAAAATT

Experiments:
[1] = target: the molecule itself; assay: SEC-MALS; SEC-MALLS on Superdex 75 HR 10/30; 25 mM Tris pH 8.5, 200 mM NaCl, 0.5 mM EDTA; 100 µl samples of 1 mg/ml protein or an equimolar mixture of SinR and SinI
[2] = target: B1; assay: as above; conditions: both partners purified
[3] = target: T1, SinR (Bacillus subtilis, UniProt P06533 1-111); assay: fluorescence anisotropy; FA: 10 mM Hepes pH 8.0, 100 mM NaCl, 1 mM DTT, 1 mM EDTA, 5 nM HEX-DNA, 25 C; SPR: 10 mM Hepes pH 8.0, 150 mM NaCl, 3 mM EDTA, 0.05% P20; conditions: protein: recombinant; tags: N-terminal Gly-Pro-Ala left after 3C cleavage of His6 tag; chain copies: 4; label: 5' HEX on one strand; 22 bp
T1 sequence: B1 chain

| Binder | stoichiometry N [1] | stoichiometry N [2] | Kd [3] [µM] |
| --- | --- | --- | --- |
| B1 | 4 |  |  |
| B2 | 4 |  |  |
| B3 | 2 | 1 |  |
| B4 |  |  | 3.7 |
| B5 |  |  | 2.8 |
